“Also recorded” adds a separate entry of the source.
Assays:
[1] = Particle size (cryoEM, dynamic light scattering); type: physicochemical; settings: round particles
Protocol: (A) depicts a graphic of HerDox formed by non-covalent, serum-stable self-assembly, showing HerPBK10 with functional domains delineated, and electrophilic binding with Dox-intercalated ds-oligo. (B) depicts a CryoEM image of HerDox particles. (C) is a HPLC chromatogram of HerDox showing elution profile of Dox absorbance. […] (D) illustrates the protection of ds-oligo from serum nuclease digestion by HerPBK10. The ds-oligo was incubated for 20 min in 100% mouse serum (Abcam, Cambridge, Mass., USA) before PAGE and EtBr staining to visualize the DNA. (E) illustrates that HerDox remains stable in blood. […] N=3. *, p<0.05, compared to respective retentates.
FIG. 33 illustrates the formation of certain corroles. […] Table summarizes salient features of the three corroles.
In some embodiments, the corrole comprises a metallic chemical element. In some of these embodiments, the metal is a transition metal. In some embodiments, the metal is Iron (Fe), Manganese (Mn), or Gallium (Ga). In other embodiments, the corrole is non-metallated. Metallated and non-metallated corroles bind in protein pockets with negligible dissociation. […] Corrole assembly with HerPBK10 yields 25-35 corroles/protein, resulting in 10-20 nm round particles (FIG. 33-B) that withstand high-speed ultrafiltration.

[2] = tested on: BT474 trastuzumab-resistant cells; assay: Tumor cell killing in culture
Protocol: FIG. 21 depicts graph that show the results of the administration of HerDox on various cells. […] N=3. *=p<0.05 compared to parental. […] N=3.
N=3. *, p<0.05 compared to parental. […] N=3. […] Parental and resistant cell lines were treated with HerDox−/+HER3 blocking peptide (ErbB3 human; Prospec), and tested for cell survival 48 hours later. […] Treatments were compared to mock (saline)-treatment. […] N=3. *, p<0.05 compared to parental. […] N=3.
Parental cell lines were pre-treated with 0.5 mg/mL Tz for 24 hours before testing these cells for surface HER3 levels. […] Parental cell lines were pre-treated with 0.5 mg/mL Tz for 24 hours before testing these cells for HerPBK10 binding. […] SKBR3 Parental cells were treated with Tz at indicated concentrations (see upper X-axes) 4 and 24 hours before HerDox treatment and assayed for survival at 48-72 h after treatment. N=3. […] SK-474 Parental cells were treated with Tz at indicated concentrations (see upper X-axes) 4 and 24 hours before HerDox treatment and assayed for survival at 48-72 h after treatment. N=3. […] MDA-MB-435 non-resistant cells were treated with Tz at indicated concentrations (see upper X-axes) 4 and 24 hours before HerDox treatment and assayed for survival at 48-72 h after treatment. […] N=3. […] Tz-resistant cells were treated with Tz at indicated concentrations (see upper X-axes) 4 and 24 hours before HerDox treatment and assayed for survival at 48-72 h after treatment. N=3.
N=3. *, p<0.05 compared to parental. […] N=3. […] N=3. […] Tumor volumes were measured by calipers. […] Tumor volumes were measured by calipers. […]

[3] = tested on: parental and resistant cell lines (JIMT-1, BT-474, SKBR3); assay: HerDox −/+ HER3 blocking peptide, cell survival; type: cell-based, human; settings: equimolar HER3:HerPBK10, 48 hours
Protocol: (A)_-illustrates that resistance enhances HerDox toxicity. […] N=3. *, p<0.05 compared to parental. (B)_illustrates that resistance enhances HerDox toxicity. […] N=3. (C) illustrates contribution of HER3 to targeted toxicity. […] Treatments were compared to mock (saline)-treatment. […] N=3. *, p<0.05 compared to parental. […] N=3.
The contribution of HER3 to targeted toxicity was evaluated by assessing whether pre-adsorbing HerDox with a peptide comprising the ligand-binding domain of HER3 blocked cytotoxicity. […] In contrast, HerDox yielded dose-dependent cell death and eliminated up to 90% of the cells (FIG. 27-E).

T47D = assay: Cytotoxicity on cell lines (HerDox dose curves); type: cell-based, human; settings: concentration yielding 50% reduction in cell survival, mean ± SD
MDA-MB-435 = assay: Cytotoxicity on cell lines (HerDox dose curves); type: cell-based, human; settings: concentration yielding 50% reduction in cell survival, mean ± SD
Protocol: FIG. 17 (B) depicts toxicity to cells displaying differential HER2. Cytotoxicities from a range of HerDox doses were assessed on each cell line by metabolic assay and confirmed by crystal violet stain. LD50 values shown in log scale were determined by non-linear regression analyses of HerDox dose curves using a scientific graphing program and confirmed using a calculator. The relative HER2 level of each cell line is shown next to each LD50 value.
The inventors measured cell surface levels of HER subunits on various cell lines and types described herein, as previously described levels may not reflect the actual levels in the available cells used. The inventors acquired the indicated cell lines from ATCC and the NIH/NCI and profiled these with respect to HER subunit levels (FIG. 17 (A)). To assess whether HerDox induces toxicity in accordance to HER2 levels, the inventors selected lines displaying HER2 at relatively high (SKBR3), moderate (MDA-MB-435, MDA-MB-453, HeLa), and low to undetectable (MDA-MB-231) levels, and performed cytotoxicity dose curves.

B1: HerDox: non-covalent complex of HerPBK10, double-stranded oligonucleotide and intercalated Dox (Unit A+Unit B+Unit C) (conjugate)
chain: SHLVKCAEKEKTFCVNGGECFMVKDLSNPSRYLCKCQPGFTGARCTENVPMKVQNQEKAEELYQKMRRAAMYEEGPPPSYESVVSAAPVAAALGSPFDAPLDPPFVPPRYLRPTGGRNSIRYSELAPLFDTTRVYLVDNKSTDVASLNYQNDHSNFLTTVIQNNDYSPGEASTQTINLDDRSHWGGDLKTILHTNMPNVNEFMFTNKFKARVMVSRLPTKDNQVELKYEWVEFTLPEGNYSETMTIDLMNNAIVEHYLKVGRQNGVLESDIGVKFDTRNFRLGFDPVTGLVMPGVYTNEAFHPDIILLPGCGVDFTHSRLSNLLGIRKRQPFQEGFRITYDDLEGGNIPALLDVDAYQASLKDDTEQGGGGAGGSNSSGSGAEENSNAAAAAMQPVEDMNDHAIRGDTFATRAEEKRAEAEAAAEAAAPAAQPEVEKPQKKPVIKPLTEDSKKRSYNLISNDSTFTQYRSWYLAYNYGDPQTGIRSWTLLCTPDVTCGSEQVYWSLPDMMQDPVTFRSTRQISNFPVVGAELLPVHSKSFYNDQAVYSQLIRQFTSLTHVFNRFPENQILARPPAPTITTVSENVPALTDHGTLPLRNSIGGVQRVTITDARRRTCPYVYKALGIVSPRVLSSRTFKKKKKKKKKK
modifications: left off: small tags and cut ends
particle diameter [1]: 10-50 nm | effect on BT474 resistant cells ([2]; 48-72 h after treatment): completely killed off; also recorded: complete cell death at all HerDox concentrations tested; also recorded: effectively eliminated | cytotoxicity at five-fold lower HerDox concentrations with trastuzumab pre-treatment ([2]; Tz-resistant BT474): further enhanced cytotoxicity | effect on cell survival at five-fold lower HerDox concentrations ([2]; Tz-resistant BT474): still had a potent effect on cell survival | cell death after pre-adsorbing with HER3 peptide [3]: inhibited by the HER3 peptide | EC50 (T47D): 0.64 ± 0.04 µM | EC50 (MDA-MB-435): 0.74 ± 0.07 µM
